Results reported in patent US8409836B2, “Treatment of cellulosic material and enzymes useful therein” (Roal Oy, priority 2005, dated 2013).

Assays:
Type in all cases: biochemical
[1] = pH optimum of heterologously produced endoglucanases; conditions: McIlvaine's buffer, pH range 4.0-8.0, CMC, 10 min, 50° C.
Description: (§1) The pH optimum of the heterologously produced endoglucanases was determined in the universal McIlvaine's buffer within a pH range of 4.0-8.0 using carboxymethylcellulose as substrate. As shown in FIG. 6 A the broadest pH range (4.5-6.0) is that of the Acremonium EG—40/Cel45A protein, the optimum being at pH 5.5. The pH optima for the other heterologously produced endoglucanases are pH 5.0-5.5 and 6.0 for Acremonium EG—40_like/Cel45B and Thermoascus EG—28/Cel5A, respectively. The optimal temperature for enzymatic activity of these endoglucanases was determined at the temperature range of 50-85° C. as described above. The highest activity of the enzymes was determined to be at 75° C., 60° C., and 75° C. for the Acremonium EG—40/Cel45A, EG—40 like/Cel45B, and Thermoascus EG—28/Cel5A, respectively (FIG. 6 B).

[2] = Temperature optimum of heterologously produced endoglucanases; conditions: temperature range 50-85° C., CMC
Description: as §1

[3] = Hydrolysis with endoglucanase preparations, corn stover; conditions: with CBHI and CBHII of T. reesei; 48 h, 45° C., pH 5.0
Description: (§2) The preparations containing the endoglucanases were compared in hydrolysis studies mixed with the purified CBH/Cel7 and CBH/Cel6 enzymes on several pre-treated substrates. Culture filtrates of T. reesei, containing different cloned endoglucanase enzymes were obtained as described in Example 19. The enzymes were enriched by removing thermolabile proteins from the mixtures by a heat treatment (60° C., 2 h, pH 5) and the supernatant was used for the hydrolysis studies. In addition, pure T. reesei cellulases (purified as described by Suurnäkki et al., 2000) were used in the enzyme mixtures. The endoglucanases used in the experiment were:
Steam exploded corn stover fibre (steam pre-treatment at 210° C. for 5 min), dry matter 31.0% (SECS).
(§3) The endoglucanases to be studied (dosage 840 nkat/g dry matter, based on endoglucanase activity against HEC according to IUPAC, 1987) were used either with cellobiohydrolases of T. reesei (CBHI/Cel7A, 8.1 mg/g d.m. and CBHII/Cel6A, 2.0 mg/g d.m.) or with Thermoascus aurantiacus Cel7A with genetically attached CBD of T. reesei (10.1 mg/g d.m.). Purified (Suurnäkki et al., 2000) EGI (Cel7B) and EGII (Cel5A) of T. reesei were also included in the experiments for comparison. All mixtures were supplemented with additional β-glucosidase from Novozym 188 (to make the total β-glucosidase dosage 560 nkat/g d.w., the relatively high dosage was used to compensate the differences in the background activities of the different EG preparations). Triplicate tubes were incubated in mixing at 45° C. for 48 h and reference samples with inactivated enzymes and corresponding substrates were prepared. The release of hydrolysis products was measured as reducing sugars with DNS method using glucose as standard (Table 31).

[4] = Hydrolysis with endoglucanase preparations, spruce; conditions: 48 h, 45° C., pH 5.0
Description: as §2
Washed steam pre-treated spruce fibre (impregnation with 3% SO2 for 20 min, followed by steam pre-treatment at 215° C. for 5 min), dry matter 25.9% (SPRUCE).
as §3

B1: Ta EG_28: endoglucanase of Thermoascus aurantiacus ALKO4242, gene Ta cel5A, amino acid SEQ ID NO: 10 (protein)
chain: MKLGSLVLALSAARLTLSAPLADRKQETKRAKVFQWFGSNESGAEFGSQNLPGVEGKDYIWPDPNTIDTLISKGMNIFRVPFMMERLVPNSMTGSPDPNYLADLIATVNAITQKGAYAVVDPHNYGRYYNSIISSPSDFQTFWKTVASQFASNPLVIFDTNNEYHDMDQTLVLNLNQAAIDGIRSAGATSQYIFVEGNSWTGAWTWTNVNDNMKSLTDPSDKIIYEMHQYLDSDGSGTSATCVSSTIGQERITSATQWLRANGKKGIIGEFAGGANDVCETAITGMLDYMAQNTDVWTGAIWWAAGPWWGDYIFSMEPDNGIAYQQILPILTPYL
- pH optimum [1]: 6.0
- Temperature of highest activity [2]: 75 °C
- Hydrolysis products as reducing sugars, SECS [3]: 3.9 mg/mL
- Hydrolysis products as reducing sugars, SPRUCE ([4]; with CBHI and CBHII of T. reesei): 3.0 mg/mL
- Hydrolysis products as reducing sugars, SPRUCE ([4]; with T. aurantiacus Cel7A + Tr CBD): 1.5 mg/mL
